# Results reported in the DeepSol protein solubility set.
# Assay: soluble on expression in E. coli; label from the status in PepcDB or PDB records
row,Sequence,soluble on expression in E. coli
1,NSSAQLLELCTEHGLSISSLMMANELSLASEEEVKAKLWNIWQTMKTCIERGYQKEGILPGGLKLRRRAPALYRRLKAEGRNNVDPLTAMDWVDLFALSVNEQNAAGDRVVTAPTNGAAGIIPAVLCYYDTFVQEVDIDVCARYLLTAAAIGILYKKNASISGAEVGCQGEVGVACSMAAGALTEIMGGTVEHVENAAEIGMEHNLGLTCDPVGGLVQVPCIERNAMGAIKAINASRMALRGDGNHKVSLDKVIKTMMDTGKDMRSKYKETAKGGLAVN,not soluble
2,MQSETTSKHTDILTSLQLSLTPRRDPTFEETTTDEQTSVQIALSPCLNATIASSKYSLDDLDVSAQYLWDTAADNLIYTTSNAREIPIRTRPTTFLTKRMTEGLQVDVTGAPTSAWIAHPLTFEVIYHHLANILCATPVFYVPHPQLLIAVASHIVSPQLESWLSTFSTPLVKDALIYHEGFPAHIKSSAWQQPLHHMSSDQLSA,not soluble
3,MGSDKIHHHHHHMGDRLYFERFIWFDSQIRNGCYPNASALARKFEFDIKTAQRSIEYFRDRLGAPLDYDASRRGYRYYDPNYQLPVTHLSESELVALLASRKLLTDAAAGPLGDELEKVSNRLGALLSNGLKGKINPERAFSFRWNGMAASDPVIFEQAVSALLSCRLLTFCYYSPLAGACTARTVEPHHMINYMGAWHLIAWCRLRNDWRDFHLARVSLAHLEEEIFSPRDETTWRPCLDETFGIFQNRERFDVTIRFSADRARWVREELWHQDQSTRDLDTGEVELTIPVSHEAEILMEVLKHGSHAEVMEPIWLRDRIREEIGKMQKKY,not soluble
4,AEEPTGVFLKKPDSVSVETGKDAVVVAKVNGKELPDKPTIKWFKGKWLELGSKSGARFSFKESHNSASNVYTVELHIGKVVLGDRGYYRLEVKAKDTCDSCGFNIDVEAPR,soluble
5,MGSDKIHHHHHHMATETLTKSDAITQSLRAAVDRNFNDQVAFLQRMVQFRSVRGEEAPQQEWLAQQFADRGYKVDTFSLADVDIASHPKAAPMDTIDPAGSMQVVATADSDGKGRSLILQGHIDVVPEGPVDLWSDPPYEAKVRDGWMIGRGAQDMKGGVSAMIFALDAIRTAGYAPDARVHVQTVTEEESTGNGALSTLMRGYRADACLIPEPTGHTLTRAQVGAVWFRLRVRGTPVHVAYSETGTSAILSAMHLIRAFEEYTKELNAQAVRDPWFGQVKNPIKFNVGIIKGGDWASSTAAWCELDCRLGLLTGDTPQEAMRGIEKCLADAQATDSFLSENPAELVWSGFQADPAVCEPGGVAEDVLTAAHKAAFNAPLDARLSTAVNDTRYYSVDYGIPALCYGPYGQGPHAFDERIDLESLRKTTLSIALFVAEWCGLRKL,not soluble
6,ATAVNGAPRDAALWSSHEQMLAQPLKDSDAEVYDIIKKESNRQRVGLELIASENFASRAVLEALGSCLNNKYSEGYPGQRYYGGTEHIDELETLCQKRALQAYGLDPQCWGVNVQPYSGSPANFAVYTALVEPHGRIMGLDLPDGGHLTHGFMTDKKKISATSIFFESMAYKVNPDTGYIDYDRLEENARLFHPKLIIAGTSCYSRNLDYGRLRKIADENGAYLMADMAHISGLVVAGVVPSPFEHCHVVTTTTHKTLRGCRAGMIFYRRGVRSVDPKTGKEILYNLESLINSAVFPGLQGGPHNHAIAGVAVALKQAMTPEFKEYQRQVVANCRALSAALVELGYKIVTGGSDNHLILVDLRSKGTDGGRAEKVLEACSIACNKNTCPGDKSALRPSGLRLGTPALTSRGLLEKDFQKVAHFIHRGIELTVQIQDDTGPRATLKEFKEKLAGDEKHQRAVRALRQEVESFAALFPLPGLPGF,soluble
7,MAHHHHHHMPRPEILASCHQTLENCLIESTRNSMDATNKAMLESVAAEMMSVSDGVMRLPLFLAMILPVQLGAATADACTFIPVTRDQSDIYEVFNVAGSSFGSYAAGDVLDMQSVGVYSQLRRRYVLVASSDGTSKTATFKMEDFEGQNVPIRKGRTNIYVNRIKSVVDNGSGSLLHSFTNAAGEQITVTCSLNYNIGQIALSFSKAPDKGTEIAIETEINIEAAPELIPLINHEMKKYTLFPSQFVIAAEHTVQAAYEAQREFGLDLGSLQFRTLKEYLSHEQDMLRLRIMIWRTLATDTFDIALPVNQSFDVWATIIRGKFQTVYRDIIERVKSSGAMGMFAGADAASFFKQLPKDFFQPAEDYIQTPYVHYIGTPFRTTHST,not soluble
8,MFEINKQIGIYIHFPWCVRKCPYCDFNSHPIKDDSYLSEQYYQKLIADFDTHLDDLQAREVISIFIGGGTPSLFKAEYLDKVLQHITKNTKISINCEITLEMNPGTVERGSILSYQNIGINRISLGVQSFQDDKLKILGRIHNCENVYTTIDEIKNSKISNFNIDIMHGLPNQSFDDGIFDITQAIAMQPTHISWYQLTIEPNTLFAAKRPKFPDEEILESIEIAGKEALAHAGFKQYEVSAFAKNTLRSIHNSNYWMFGDYIGIGAGAHSKITNLKTKQIKRVWKHKHPKIYTQTDKFIKDSNIVTQDEIIYEFMLNTLRLKNGFKLSEFEQQTFLSSNIISQKLQLGIDKGLLELNANQIKPTAKGYLFLNDCINIFS,not soluble
9,MSLSKASLQEMAVKYIAEQIGEHDSEQIHLSALPLDSRIPDRACSTTPDIISSSEPPFNRQITIQVKCDDPQSWAQYVHIKVLKMAPVVVTTDNIARGEVITSAHITVEMKPTHFVRVQYQDDPKALIGSRSKRNIREGMPILLNQICMVCKGDAINIYASTKGLQIKTTGVALEDGTLGEQILVENKKTGKVLNARVDGVESVQVNIEGHHHHHH,not soluble
10,MILMIDNYDSFTFNLVQFLGELGQELVVKRNDEVTISDIENMKPDFLMISPGPCSPNEAGISMDVIRYFAGKIPIFGVCLGHQSIAQVFGGEVVRAERLMHGKTSPMHHDGKTIFSDIPNPFTATRYHSLIVKKETLPDCLEVTSWTEEGEIMALRHTTLPIEGVQFHPESIMTSHGKELLQNFIRKYSPSVTSC,not soluble
11,MRETSSREDTNNIGKAPEMSGGTIMDTMTSLPHQNDQNVIRHLTNLVKSPASGDDDIKKKEDSIMELGNILAQNKQTEELRNMIEQTRPFLVSLGKAKAAKLVRDLVDLCLKIDDQDGDIKVGLVKECIQWATEQNRTFLRQTLTARLVRLYNDLQRYTQALPLAADLIRELKKVDDKDVLVEVELEESKAYYNLSNIGRARASLTGARTTANAIYVNPRMQAALDLQSGILHAADEKDFKTAFSYFYEAFEGYDSVDEKVSALTALKYMLLCKVMLDLPDEVNSLLSAKLALKYNGSDLDAMKAIAAAAQKRSLKDFQVAFGSFPQELQMDPVVRKHFHSLSERMLEKDLCRIIEPYSFVQIEHVAQQIGIDRSKVEKKLSQMILDQKLSGSLDQGEGMLIVFEIAVPDEAYQTALDTIHAMGEVVDALYSNASKIN,not soluble
12,MGSDKIHHHHHHMEKSSIYGLTWTNLTEWLEAHGQKKFRATQVWDWLYRKRVKTFEEMSNVPKETIELLTANFVMNTLEEQVVQESTDGTTKYLFKLSDGNLIETVMMKQEYGLSVCVTTQVGCNIGCTFCASGLLKKSRDLTAGEIVEQIMNVQHYLDGRNLEERVSHVVVMGIGEPFDNYDNVMDFLRVINHDKGLAIGARHITVSTSGLAPRIIDFANEDFQVNLAISLHAPNNELRTSIMRINKTYSIEKLMEAIHYYVNKTNRRITFEYIMLKGVNDHKKEALELAALLGEHRHLAYVNLIPYNPVDEHIDYERSTKEDVLAFYDTLKKNGINCVIRREHGTDIDAACGQLRSKQIKRVGVRERMKQKQAAAEE,not soluble
13,MQKSDEVTEKFKRYCNQLEKYGQTENVHSPVMAMLRRKGRKQLIEIMKRDGDCTSSINKLWIVGYYHPFQFFIRDKEKNMAIAVLLTMFCGELQEMLSLPDDKYPALWNMYIGDFHRYMPDEEIQKCLAVGYYSRAIDLDPNQGRAFHVLAGLRADLNVAQKLRLMILGQLADAPYKKGTELLEYLKFPQKESTDKLMVDFVIWALNEKSKRMDYQMTGIKIVNEFKAEIEQKLEFDWSLIMSTCRLASKLAMKKFGFQQFYNCFDTISTLYITIYSRTISSKCLLAEAISWISDSAEILGHLDEQKNEPHFQKLSVFAKTKWNELNDLVMNHINSVFTSMSLTINPSISMTSFLLNGPISEPNVEFLSQLINYLVSVEFPPMEIIHDREESGPLLRRINQSEQKRLDIQIKTQNDEVNREDWRPVYVLMDYDVIVDKIRIALKIWDIDDFICILPSTVLDELDYQKTKNRAVRPVIRALMELQAEGKIVLKKCDNERSCAEQLVQSARRSAEDHKHIVAFLCKNPSEQKEMEGVTFYDIDQFYMKYLE,not soluble
14,GPGSMMTPEDATGLEAARKQKIHNLKLKTACLENEELVQELHISDWSETQRQKLRGAHEKGEELLASVEVGTKWNLMEAYDLAKLMRVCGLEMSQRELYRPEDKPQFMDIIGVKKVLQDLRQNRNKTRVVSFTQLIDNSIAKMEKVEEELRRSQLDATQLAQVPTRTVKMMEDIMNATQIQNALASTDDQMQTQLAQLEKTNEIQNVAMHDGEMQVAEEQMWTKVQLQERLIELLKDKFGLIGKCEEENAQFKEIYEVQKQANQETSQMKDAKRRLRQRCETDLKHIQDAIQKADLEDAEAAKRYAGNKERSERAIKENEEMQEEAWNKIQDLERQLQNLGTDRFDEVKRRIEEVDREEKRRVENAQFLEIAAQHKKLLELTVYNCDLAMRCTGLVEELVSEGCAGVKARYDKTNQDLAALRLEVHKEHLEYFRMLYLTLGSLIYKKEKRLEEIDRNIRLAHIQLEFCVETFDPNAKKHADMKKELYKLRQGVEEELAMLKEKQAAALDDFKESEEALDAAGIEFSHPVDENNEEVLTRRSKMVEYKSHLTKQEEVRIAAEREEIKRARLLRSGGESAAAQITSGSMNADYAASAQLEL,soluble
15,MGSDKIHHHHHHNEEIEKAVQPVEISFNTAVSKTTRATTLVNSAFTKFTAYAYSTTGAFADATKVNALISGAEFTKGENSAWGSGNSVFYWPATDQVSFFAFSPNTTKQLSWGAAVANTAPTLTYTVEGTVEKQEDLVVAEAMNKQKATSGSTEAVALNFKHALTKVGFKIKGEGSGVTYTLNKIVINAKNKGVYTYGATSTTNETTLGTWTIPSDATATAYTVEPTEALSITGADNGGTANETLVEADYTAMLIPQNLTGVTFEIYYKAEAGGAILCDKTTTPEEITFTDGTWTAGQSVAYVLTLKGVEKMSITGSVADSWDFTETPK,not soluble
16,MTATSLWELAERARKRLSEIAKGNRDRALLAMADLLEARWEEVLRANREDLEEAERTGLPKAKLDRLALKEKDLKTLTEGLRQIARLPDPLGRIEGLAKRPNGLRVGRMRVPLGLIGFIYEARPGATVEAVSVALKAGNAMLLRGGKEAFRSNRALVALWHEALGEAGLPEEAVTLVPTTDREAVLEMCRLELLDLLIPRGGEELIRLVQREARVPVLAHAKGVNHLYVDKKADLSMALRLALNGKTQRPAVCNALETVLVHEKVAEAFLPRLEKAMREKGVELRACPRALPLLKEAVPAREDEWDREYLDLVLRVKVVSGLEEALAHIARYGSRHTEAICTEDPKAAWRFLEEVDASLVLWNASTRFNDGFELGLGAEIGISTSKLHAYGPMGPMELTTLKWVALGEGQERT,soluble
17,MDYFPVISVDLQSGRRVVSVEYFRGDGPPRIPYSMVGPCCVFLMHHRPSHEVRLRFSDFYNVGEFPYRVGLGDFASNVAPPPAKPFQRLIDLIGHMTLSDFTRFPNLKEAISWPLGEPSLAFFDLSSTRVHRNDDIRRDQIATLAMRSCKITNDLEDSFVGLHRMIATEAILRGIDLCLLPGFDLMYEVAHVQCVRLLQAAKEDISNAVVPNSALIVLMEESLMLRSSLPSMMGRNNWIPVIPPIPDVEMESEEESDDDGFVEVD,not soluble
18,MKFFSNPKQEAQTHFHLHKDKETMSVSAIFGTGIVTVAASPVLRQFQVPKLGNGGGLGMVIECSSRPQKKSTAHHRKTRPKKTQPWDIKRKPTVYAPLPPLPAEWSPFTLASDDGGAATAAGDLVSGAA,not soluble
